In patent US20140371152A1 (DOSHISHA, published 2014):

Molecular target: T1, Amyloid β 1-9 polypeptide corresponding to the N-terminal region of βCTF
T1 construct: Screening target and KD partner
Test: dissociation constant against the Amyloid β 1-9 peptide; method not stated

B1: #4 polypeptide (peptide)
peptide: Ac-MHLVICDCYCTTDICYCYSCTPN-NH2
modifications: cysteine pairing not given here
notes: Synthetic peptide found by screening against Amyloid β 1-9; used dissolved in DMSO; also called peptide name #4
- Kd: 2620 nM
